Measurements: PMC10716122
Each block holds one substance with its values, some of them ahead of it.

Experiments:
[1] = target: TRIM41 (UniProt Q8WV44); assay: co-immunoprecipitation; details: reference: wild-type cGAS
[2] = target: LINE-1 (L1) ORF1p (human) (UniProt Q9UN81); assay: not stated; formation of the ORF1p trimer with or without cGAS, Supplementary Fig. 2o; method not given

binding against the reference ([1]; sites S305): weaker
Substance: cGAS (from UniProt Q8N884) S305A

stoichiometry N [2]: 3
Substance: LINE-1 (L1) ORF1p (from UniProt Q9UN81 1-338) (natural protein)

binding against the reference ([1]; sites S120): weaker
Substance: cGAS (from UniProt Q8N884) S120A
